Experiment: yeast display, Sf9 membrane polyspecificity reagent, FACS + sequencing; frameworks hold sequencing errors
In short: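 Genes from sorted yeast were amplified by colony PCR, read by MiSeq 2 × 250 sequencing and filtered on CDR length. These cells carried a synthetic nanobody library in Saccharomyces cerevisiae BJ5465 and were sorted by FACS into low and high (top ~1%) gates on anti-HA and streptavidin fluorescence. Polyreactivity is labelled according to the gate of origin.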
In the case of “QVQLVESGGGLVQAGGSLRLSCAASGGSFGMNAMGWYRKAPGKERELVASINANGGSTYYADSVKGRFTISRDNAKNTVYLQMNSLKPEDTAVYYCAVVVTRYNHNEYNSWGQGTQVTVSS”, the “polyreactivity (PSR sort gate)” value is reported as “low polyreactivity”.
With “QVQLVESGGCLVQAGGSLRLSCAASGSTFGGNAMGWYRQAPGKERELVAAITIGGRTNYADSVKGRFTISRDNAKNTVYLQMNSLKPEDTAVYYCAKDRDQWQDYWGQGSQVTVSS” the “polyreactivity (PSR sort gate)” value was “low polyreactivity”.
For “QVQLVESGGGLVQAGGSLRLSCAASGSIFYLYAMGWYRQAPGKERELVADITITGGSTYYADSVKGRFTISRDNAKNTVYLQMNSLKPEDTAVYYCAADEFWFTYRYDYWGQGTQVTVSS”, the “polyreactivity (PSR sort gate)” value was “high polyreactivity”.
With “QVQLVESGGGLVQAGGSLRLSCAASGSTFYYYAMGWYRQAPGKEREFVAAISSSTGSTYYADSVKGRFTISRDNAKNTVYLQMNSLKPEDTAVYYCNALTWYTSQDYDYWGQGTQVTVSS” the “polyreactivity (PSR sort gate)” value was “high polyreactivity”.
With “QVQLVESGGGLVQAGGSLRLSCAASGNIFTIYAMGWYRQAPGKERELVAAIDSDGTTYYADSVKGRFTISRYNAKNTVYLQMNSLKPEDTAVYYCAAGGRSVRYNYWGQGTQVTVSS” the “polyreactivity (PSR sort gate)” value was “high polyreactivity”.
In the case of “QVQLVESGGGLVQAVGSLRLSCAASGLTFYSNAMGWYRQPHGKERELVATISQDGGRTYADSVKGRFTISRDNAKNTVYLQMNSLKPEDTAVYYCAADYSGNYDFGYWGQGTQVTVSS”, the “polyreactivity (PSR sort gate)” value is reported as “low polyreactivity”.
In the case of “QVQLVESGGGLVQAGGSLRLSCAASGRTFYFYVMGWYRQAPGKERELVARISWSGGSTYYADSVKGRFTISRDNAKNTVYLQMNSLKPEDTAVYYCARQYKYPSSGEYDSWGQGTQVSVSS”, the “polyreactivity (PSR sort gate)” value is reported as “low polyreactivity”.
For “QVQLVESGGGLVQAGGSLRLSCAASGLTFWRYTMGWYRQAPGKERELVAVITYRGGSTYYADSVKGRFTISRDNAKNTVYLQMNSLKPEDTAVYYCAAGRRTYGLTYDYWGQGTQVTVSS”, the “polyreactivity (PSR sort gate)” value was “high polyreactivity”.
With “QVQLVESGGGLVQAGGSLRLSCAASGLTFYGNARGWYRQAPGKERELVADISLSGGRTFYADSVKGRFTISRDNAKHTVYLQMNSLKPEDTAVYYCANTYTSGYHRRYDYWGQGTQVTVSS” the “polyreactivity (PSR sort gate)” value was “low polyreactivity”.
In the case of “QVQLVESGGGLVQAGGSLRLTCAASGSIFVGYAMGWYRQAPGKERELVAAITGSGTRTYYADSVKGRFTISRDNAKNTVYLQMNSLKPEDTAVYYCAADYFRYYPYDYWGQGTQVTVSS”, the “polyreactivity (PSR sort gate)” value is reported as “low polyreactivity”.
For “QVQLVESGGGLVQAGGSLRLRCAASGITFSGNAMGWYRQAPRKERELVAAITFSGGRTYYADSVKGSFTISRDNAKNTVYLQMNSLKPEDSAVYYCAAETPRGRWLGDYWGQGTQVTVSS”, the “polyreactivity (PSR sort gate)” value was “low polyreactivity”.
With “QVQVVESGGGLVQAGGSLRLSCAASGRTFGVYAMGWSRQAPGKERELVAVINRSGGSTYYADSVKGRFTISRDNAKYTVYLQMNSLNPEDTAVYSCDKASAYSAYDDHDDYWGHGTQVTVSS” the “polyreactivity (PSR sort gate)” value was “high polyreactivity”.
With “QVQLVESGGGLVQAGGSLRLSCAASGIIVAWYAMGWYRQAPGKERELVARISSGASPNYADSVKGRFTISRDNAKNTVYLQMNSLKPEDTSVYYCAAVSHPFRRSRYDYWRQGTQVTVSS” the “polyreactivity (PSR sort gate)” value was “high polyreactivity”.
In the case of “QVQLVESGGGLVQAGGSLRLSCAASGFTFDNYGMGWYRQAPGKERDLVAAISTSGGSTYYADSVKGRFTISRDNEKNTVYFQMNSLKPEDTADYYCNVDFYEYSSVSYDYWGQGTQVTVSS”, the “polyreactivity (PSR sort gate)” value is reported as “high polyreactivity”.
With “QVQLEESGGGLVQAGGSLRLSCAASGNIFFVYDMGWYRQAPGKERELVAAISWSGGSTYADSVKGRFTISRDNAKNTVYLQMNSLKPEDTAVYYCAAARYAYKHAFEYWGQGTQVTVSS” the “polyreactivity (PSR sort gate)” value was “low polyreactivity”.
For “QVQLVESGGGLFQAGGSLRLSCAASGSTLAGYTMGWYRQAPGKERELVASISFTGGSTYYADSVKGRFTISRDNAKNTVYLQMNSLKPEDTAVYYCAAGTWQYYFLYDTYRRYYYWGQGTQVTGSS”, the “polyreactivity (PSR sort gate)” value was “high polyreactivity”.
With “QVQLVESGGGLVQAGGSLRLSCAASGRTSGVYSMGWYRQAPGKERELVAAISRSGDSTYYADSVKGRFTISRDNAKNTVYLQMNSLKPEDTAVYYCATTFKRSMYWGQGTQVTVSS” the “polyreactivity (PSR sort gate)” value was “high polyreactivity”.
With “QVQLVESGGGLVLAGGSLRLSCAASGSTFYAHAMGWYRQARGKERELVAAITSGGSTNYADSVKGRFTISRDNAKNTVNLQINSLKPEDTAVYYCATPVNRERHAEDYWGQGTQVTVSS” the “polyreactivity (PSR sort gate)” value was “low polyreactivity”.
With “QVPLVESGGGLVQAGGSLRLSCAASGSIFRNYALGWYRQAPGKERELVAGITQRGGRTYYADSVKGRFTSSRDNAKNTVYLQLNSLKPEDTAVYYCAASYRGVPEYDSWGQGTQVTVSS” the “polyreactivity (PSR sort gate)” value was “high polyreactivity”.
For “QVQLVESGGGLVQAGGSLRLICAASGRTFRFYTMGWYRQAPGKERELVAGIRQRGGTTYYADSVKGRFTISRDNAKNTVYLQMNSLKPEDTAVYYCAADVYYPFYSPGFDYWGQGTQVTVSS”, the “polyreactivity (PSR sort gate)” value was “high polyreactivity”.
For “QVQLVESGGGLVQAGGSLRLSCAASGSTFTRYAMGWYRQAPGKERELVAAISRGGSTNYADSVKGRFTISRDNAKNTVYLQMNSLKPEDTAVYYCAKGSNRSRGYYWGQGTQVTVSS”, the “polyreactivity (PSR sort gate)” value was “high polyreactivity”.
In the case of “QVQLVESGVGLVQAGGSLRLSCAASGSIFQYNAMGWYRQAPGKERELVAAITSTGDTNYADSVKGRFTISRDNAKNTVYLQMNSLKAEDTAVYFCAADVYGTVRRVGWYYVGEGYDYWGQGTQVTVSS”, the “polyreactivity (PSR sort gate)” value is reported as “low polyreactivity”.
With “QVQLVESGGGLVQAGGSLSFSCAAPGSIFPRYAMGWYRQAPGKERELVAAISRSGGSTYYADSVKGRFTISRDNAKNSVYLQMNSLKPEDTAVYYCATDKVSHRRYDYWGQGTQVTVSS” the “polyreactivity (PSR sort gate)” value was “high polyreactivity”.
In the case of “QVQLVESGGGLVQAGGSLRLSCAASGSIFYRYAMGWYRQAPGKERELVAAINWSGGSTYYADSVKGGFTISRDNAKNTVYLQMNTLKPEDTAVYYCAARLYWRRYDYWGQGTQVTVSS”, the “polyreactivity (PSR sort gate)” value is reported as “high polyreactivity”.
With “QVQLVESGGGLVQAGGSLRLSCAASGFTFGRKALGWYRQAPGKERELVAAISSSEHFYVRRLLKGRFTISRENAKNTVYLQMNSLKPEDTAVYYCATDNSGEVEYWGQGTQVTVSS” the “polyreactivity (PSR sort gate)” value was “high polyreactivity”.
In the case of “QVQLVESGGGLVQAGGSLRLSCAASGRILRYNAMGWYRQAPGKERELVAAITRTGGITRYADSVKGRFTISRDNAKNTVSLQMNSLNPQDTAVYYCNTYPRYGYVLSWPQGYDYWGQGTQVTVSS”, the “polyreactivity (PSR sort gate)” value is reported as “low polyreactivity”.
For “QVQLVESGGGLVQAGGSLRLSCAASGFTFAVNAMGWYRQAPGKERELVAAISWSGVSTYYADSVKRRFTISRDNAKNTVYLQMNSLKPEDTAVYYCARRRTKSYTRKYDYWGQGTQVTVSS”, the “polyreactivity (PSR sort gate)” value was “low polyreactivity”.
With “QVQLVESGGGLVQAGGSLRLSCAASGSTFGWYAMGWYRQAPGKERELVASISSGGSTNYADSVKGRFTISRDNAKNTVYLQMNSLKPEDTAVYYCAARGGYWWYRYGYWGQGTQVTVSS” the “polyreactivity (PSR sort gate)” value was “high polyreactivity”.
For “QVQLVESGGGLVQAGGSLRLSCAASGFIFRDNAMGWYRQAPGKERELVAAISKSGGRTYYADSVKGRFTISRDNAKNTVYLLMNSLKPEDTAVYYCAADTYYNLGNYWGQGTQVTVSS”, the “polyreactivity (PSR sort gate)” value was “high polyreactivity”.
For “QVQLVESGGGLVQAGGSLRLSCAASGRIFYYNTMGWYRQAPGKESELVAAISWSGGSTFYADSVKGRFTISRDNAKNTVYLQMNSLKPEDTAVYYCARYKLRSGRSGDHDDYWGQGTQVTVSS”, the “polyreactivity (PSR sort gate)” value was “high polyreactivity”.
With “QFQLVESGGGLVQAGGSLRLSCAASARTFVSNAMGWDRQAPGKERELVADITSGGSTDYADSVKGRFTSSRDNAKNTVYVQMNSVKPEDTAVSYCATDLWRWYGWFDYWGQGTQVTVSS” the “polyreactivity (PSR sort gate)” value was “low polyreactivity”.
In the case of “QVQLVESGGGLVQAGGSLRLSCAASGLIFYWYAMGWYRQAPGKEREFVAAISYGGTTTSYADSVKGRFTISRDNAKNTVYLQMNSLKPEDTAVYYCAAEESTSSWSINDYWGQGTQVTVSS”, the “polyreactivity (PSR sort gate)” value is reported as “low polyreactivity”.
In the case of “QVQLVESGGGLVQAGGSLSLSCAASGGTFLSNAMGWYRQAPGKERELVASISWGGGSTTYADSVKGRFTISRDNAKNTVYLQMNSLKPEDTAVYYCNALDGPGYYVDYDYWGQGTQVTVSS”, the “polyreactivity (PSR sort gate)” value is reported as “low polyreactivity”.
In the case of “QVQLVESGGGLVQAGGSLRLSCAASGSIFRSYAMGWYRQAPGKERELVAAISRRGSSTYYADSVKGRFTISRDNAKNTVYLQMNSLKPEDTAVYYCNRVRYPRVDYWGQGTQVTVSS”, the “polyreactivity (PSR sort gate)” value is reported as “high polyreactivity”.
For “QVQLVESGGGLVQAGGSLRLRCAASGRTIASYTMGWYRQAPGKEREWVAAISKSGGSTYYADSVKGRFTNSRDNAKNTVYLQMNSLKPEDTAVYYCAKRRSGNVRKYDYWGQGTQVTVSS”, the “polyreactivity (PSR sort gate)” value was “high polyreactivity”.
With “QVQLVESGGGSVQAGGSLRLSCAASGITSYGYAMGWYRQAPGKERDLVASISRTGGNTYADSVKGRFTISRDNAKNTVYLQMNSLKPEDTAVYYCNAGRSWDYWYGYDYWGQGTQVTVSS” the “polyreactivity (PSR sort gate)” value was “low polyreactivity”.
In the case of “QVQLVESGGGLVQAGGSLRLSCAASGGIFYFYAMGWYRQAPGKERELVAVITWSGGRTRYADSVKGRFTISRDNAKNTVYLQMNSLKPEDTAVYYCATYGVNPPGVEEYNYWGQGTQVTVSS”, the “polyreactivity (PSR sort gate)” value is reported as “high polyreactivity”.
For “QVQLVESGGGLVQAGGSLRLSCAASGLTFSPYAMGWSRQAPGKERELVATITIGGSTKYADSVKGRFTISRDNAKNTVYLQMNSLKPEDSAVYYCAVRSGYVTRSYEYWGQGTQVTVSS”, the “polyreactivity (PSR sort gate)” value was “low polyreactivity”.
In the case of “QVQLVESGGGLVQAGGSLRLSCAPSGSIFVHNAMGWYRQAPGKERELVAALDGGGGTYYADSVKGRFTISRDNAKNTVYLQMNSLKPEDTAVYYCAARYFHHYWGDLEVEFDYWGQGTQVTVSS”, the “polyreactivity (PSR sort gate)” value is reported as “low polyreactivity”.
With “QVQLVESGGGLVQAGGSLRLSCAASGRTFGRYAMGWYRQAPGKERELVARISFTGGSTYADSVKGRFTISRDNAKNTVYLQMNSLKPEDTAVYYCNVPYYINHKFYDSPFVQRYDYWGQGTQVTVSS” the “polyreactivity (PSR sort gate)” value was “low polyreactivity”.
With “QVQLVESGGGLVQAGGSLRLSCAASGGIFVTYAMGWYRQAPGKERELVAAITSGGTTYYADSVKGRFTISRDNAKNTVYLQMNSLKPEDTAVYYCAADPTNSYLEYDYWGQGTQVTVSS” the “polyreactivity (PSR sort gate)” value was “low polyreactivity”.
With “QVQLVESAGGLVQAGGSLRLSCAASGSTLYQYTMGWYRQAPGKERELVAAISRSGGRTYYADSVKGRFTISRDNAKNTVYLQMNSLKPEDTAVYYCAVDPGAYDSWGQGTQVTVSS” the “polyreactivity (PSR sort gate)” value was “high polyreactivity”.
With “QVQLVESGGGLVQAGGSLRLSCAASGFTFYKNTMGWYRQAPGKERELVAAISSSGSSTYYADSVKGRFTISRDNAKNTVYLQMNSLKPEDTAVYYCAAVYRSWTSYNGRNYWGQGTQVTVSS” the “polyreactivity (PSR sort gate)” value was “high polyreactivity”.

Reference: the nanobody polyreactivity screen of Harvey et al. (2022)
